The test system of the series is UvrY-His6 phosphorylated (UvrY-P) (Escherichia coli MG1655). Put plainly: EMSA. As to conditions: in vitro phosphorylated; 20 mM Tris-HCl pH 7.5, 10% glycerol, 50 mM KCl, 3 mM MgCl2, 1 mM DTT, 100 ug/mL BSA, 0.5 nM DNA, 30 min at 37 C (Fig 3 legend: room temperature).

Regarding csrB EMSA probe (-246 to +49), the binding signal (fold affinity vs non-phosphorylated UvrY) was 2.
csrC EMSA probe (-247 to +56) had a binding signal (fold affinity vs non-phosphorylated UvrY) of 2.

For the origin of these results see PMC4682653.
